Assay results: EP4538294A1 (Shandong Simcere Biopharmaceutical Co., Ltd., dated 2025)

Tests used:
[1] = target: T1, human GPRC5D on CHOK1-human GPRC5D cells (human, UniProt Q9NZD1 1-345); test: FACS, CHOK1-human GPRC5D cells
T1 construct: whole, on cells

[2] = target: T2, human CD3 on Jurkat cells and on activated human PBMC (human, UniProt P07766 23-207; P04234 22-171); test: FACS, Jurkat cells
T2 construct: whole, on cells; Endogenous CD3 of the T cell receptor complex on cells

[3] = target: T3, human BCMA on Flp-inCHO-human BCMA cells (human, UniProt Q02223 1-184); test: FACS, Flp-inCHO-human BCMA cells
T3 construct: whole, on cells
T3 sequence (looked up): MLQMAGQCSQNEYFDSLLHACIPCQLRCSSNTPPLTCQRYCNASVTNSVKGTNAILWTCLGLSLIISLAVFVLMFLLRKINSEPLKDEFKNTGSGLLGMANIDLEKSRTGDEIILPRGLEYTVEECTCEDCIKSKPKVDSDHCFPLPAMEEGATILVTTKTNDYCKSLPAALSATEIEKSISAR

[4] = target: T2, human CD3 on Jurkat cells and on …; test: FACS, activated human PBMC
[5] = target: T4, monkey CD3 on activated monkey PBMC (monkey); test: FACS, activated monkey PBMC
T4 construct: whole, on cells
T4 sequence (Q95LI5 22-198): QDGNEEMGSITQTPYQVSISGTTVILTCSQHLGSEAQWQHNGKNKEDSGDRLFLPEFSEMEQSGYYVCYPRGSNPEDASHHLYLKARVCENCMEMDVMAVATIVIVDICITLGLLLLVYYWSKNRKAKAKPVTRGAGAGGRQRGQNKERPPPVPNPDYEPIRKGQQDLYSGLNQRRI

T1 sequence (Q9NZD1 whole entry): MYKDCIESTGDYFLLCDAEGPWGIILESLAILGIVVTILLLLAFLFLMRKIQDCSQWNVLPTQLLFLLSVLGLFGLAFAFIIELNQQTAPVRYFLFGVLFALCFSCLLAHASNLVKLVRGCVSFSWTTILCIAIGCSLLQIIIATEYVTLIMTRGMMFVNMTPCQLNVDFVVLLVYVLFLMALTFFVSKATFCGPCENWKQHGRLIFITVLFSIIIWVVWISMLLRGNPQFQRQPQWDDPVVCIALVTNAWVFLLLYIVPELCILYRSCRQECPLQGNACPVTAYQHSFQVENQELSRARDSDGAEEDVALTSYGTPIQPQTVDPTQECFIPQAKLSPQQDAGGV
T2 sequence (P07766 23-207, chain 1 of 2): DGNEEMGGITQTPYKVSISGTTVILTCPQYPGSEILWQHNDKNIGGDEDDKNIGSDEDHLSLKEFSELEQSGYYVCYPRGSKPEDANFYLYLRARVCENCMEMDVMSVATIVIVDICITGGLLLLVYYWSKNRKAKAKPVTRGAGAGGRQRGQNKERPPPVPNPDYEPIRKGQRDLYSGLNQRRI
T2 sequence (P04234 22-171, chain 2 of 2): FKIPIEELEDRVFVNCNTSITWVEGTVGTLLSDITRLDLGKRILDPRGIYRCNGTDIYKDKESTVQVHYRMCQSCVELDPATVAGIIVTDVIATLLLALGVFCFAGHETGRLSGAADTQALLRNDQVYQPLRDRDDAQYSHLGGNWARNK

B1: Tri-59 (trispecific antibody, V domains shown)
VHH: EVQLVESGGGLVQPGGSLRLSCAASESISSIHIMAWYRQAPGKQRELVAGIRNDGSTVYVDSVKGRFTISRDNAKNSLYLQMNSLRAEDTAVYYCNADQGFGSYSEWERRSRWGQGTTVTVSS
VH 1: EVQLVQSGAEVKKPGSSVKVSCKASGYTFTSYGISWVRQAPGQGLEWMGEIYPRSGNTYYNEKFKGRVTLTADKSTSTAYMELSSLRSEDTAVYYCARGRAYGRNYPMDYWGQGTTVTVSS
VL 1: EIVLTQSPATLSLSPGERATLSCRASQSIGTSIHWYQQKPGQSPRLLIKYASESISGIPARFSGSGSGTDFTLTISSLEPEDFAVYYCQQSNSWPYTFGGGTKVEIK
VH 2: EVQLVESGGGVVQPGRSLRLSCAASGFTFTDYYMSWVRQAPGKGLEWVAMSRNKAKGHTIEYSSSVKGRFTISRDNSKNTLYLQMNSLRAEDTAVYYCARDTYESYDGYFDVWGQGTTVTVSS
VL 2: DIVMTQSPDSLAVSLGERATINCKSSQSLFNSRSRKNYLAWYQQKPGQTPKLLIYWASIRESGVPDRFSGSGSGTDFTLTISSLQAEDVAVYYCKQSYYLYTFGQGTKLEIK
B1 was tested, and the EC50 [1] was 0.59 nM, the “Maximum mean fluorescence intensity” value [2] was 1800 and the EC50 [3] was 1.21 nM. For the same binder, the EC50 [4] was 92.1 nM, the “Maximum mean fluorescence intensity” value [4] was 3510 and the EC50 [5] was 249 nM. The “Maximum mean fluorescence intensity” value [5] was 5280.

B2: Tri-55 (trispecific antibody, V domains shown)
VHH: EVQLVESGGGLVQPGGSLRLSCAASESISSIHIMAWYRQAPGKQRELVAGIRNDGSTVYVDSVKGRFTISRDNAKNSLYLQMNSLRAEDTAVYYCNADQGFGSYSEWERRSRWGQGTTVTVSS
VH 1: EVQLVQSGAEVKKPGSSVKVSCKASGYTFTSYGISWVRQAPGQGLEWMGEIYPRSGNTYYNEKFKGRVTLTADKSTSTAYMELSSLRSEDTAVYYCARGRAYGRNYPMDYWGQGTTVTVSS
VL 1: EIVLTQSPATLSLSPGERATLSCRASQSIGTSIHWYQQKPGQSPRLLIKYASESISGIPARFSGSGSGTDFTLTISSLEPEDFAVYYCQQSNSWPYTFGGGTKVEIK
VH 2: EVQLVESGGGVVQPGRSLRLSCAASGFTFTDYYMSWVRQAPGKGLEWVAMSRNKAKGHTIEYSSSVKGRFTISRDNSKNTLYLQMNSLRAEDTAVYYCARDTYESYDGYFDVWGQGTTVTVSS
VL 2: DIVMTQSPDSLAVSLGERATINCKSSQSLFNSRSRKNYLAWYQQKPGQTPKLLIYWASIRESGVPDRFSGSGSGTDFTLTISSLQAEDVAVYYCKQSYYLYTFGQGTKLEIK
With B2 the EC50 [1] was 6.26 nM, the EC50 [2] was 179 nM and the “Maximum mean fluorescence intensity” value [2] was 4690. The EC50 [3] was 0.92 nM, the EC50 [4] was 149 nM and the “Maximum mean fluorescence intensity” value [4] was 2260. For the same binder, the EC50 [5] was 159 nM and the “Maximum mean fluorescence intensity” value [5] was 2030.

B3: Tri-29 (trispecific antibody, V domains shown)
VHH: EVQLVESGGGLVQPGGSLRLSCSASGFTLDYYMIGWFRQAPGKEREGLSSISPADGSTYYADSVKGRFTISRDSSKNTVYLQMNSLRAEDTAVYYCAAGNEATISWGFGPWEYDYWGQGTMVTVSS
VH 1: EVQLVQSGAEVKKPGSSVKVSCKASGYTFTSYGISWVRQAPGQGLEWMGEIYPRSGNTYYNEKFKGRVTLTADKSTSTAYMELSSLRSEDTAVYYCARGRAYGRNYPMDYWGQGTTVTVSS
VL 1: EIVLTQSPATLSLSPGERATLSCRASQSIGTSIHWYQQKPGQSPRLLIKYASESISGIPARFSGSGSGTDFTLTISSLEPEDFAVYYCQQSNSWPYTFGGGTKVEIK
VH 2: EVQLVESGGGVVQPGRSLRLSCAASGFTFTDYYMSWVRQAPGKGLEWVAMSRNKAKGHTIEYSSSVKGRFTISRDNSKNTLYLQMNSLRAEDTAVYYCARDTYESYDGYFDVWGQGTTVTVSS
VL 2: DIVMTQSPDSLAVSLGERATINCKSSQSLFNSRSRKNYLAWYQQKPGQTPKLLIYWASIRESGVPDRFSGSGSGTDFTLTISSLQAEDVAVYYCKQSYYLYTFGQGTKLEIK
For B3, the EC50 [1] was 1.39 nM, the “Maximum mean fluorescence intensity” value [2] was 418 and the EC50 [3] was 2.27 nM. The EC50 [4] was 161 nM, the “Maximum mean fluorescence intensity” value [4] was 6730 and the “Maximum mean fluorescence intensity” value [5] was 5630.

B4: Tri-32 (trispecific antibody, V domains shown)
VHH: EVQLVESGGGLVQPGGSLRLSCSASGFTLDYYMIGWFRQAPGKEREGLSSISPADGSTYYADSVKGRFTISRDSSKNTVYLQMNSLRAEDTAVYYCAAGNEATISWGFGPWEYDYWGQGTMVTVSS
VH 1: EVQLVQSGAEVKKPGSSVKVSCKASGYTFTSYGISWVRQAPGQGLEWMGEIYPRSGNTYYNEKFKGRVTLTADKSTSTAYMELSSLRSEDTAVYYCARGRAYGRNYPMDYWGQGTTVTVSS
VL 1: EIVLTQSPATLSLSPGERATLSCRASQSIGTSIHWYQQKPGQSPRLLIKYASESISGIPARFSGSGSGTDFTLTISSLEPEDFAVYYCQQSNSWPYTFGGGTKVEIK
VH 2: EVQLVESGGGVVQPGRSLRLSCAASGFTFTDYYMSWVRQAPGKGLEWVAMSRNKAKGHTIEYSSSVKGRFTISRDNSKNTLYLQMNSLRAEDTAVYYCARDTYESYDGYFDVWGQGTTVTVSS
VL 2: DIVMTQSPDSLAVSLGERATINCKSSQSLFNSRSRKNYLAWYQQKPGQTPKLLIYWASIRESGVPDRFSGSGSGTDFTLTISSLQAEDVAVYYCKQSYYLYTFGQGTKLEIK
With B4 the EC50 [1] was 3.06 nM, the EC50 [2] was 370 nM and the “Maximum mean fluorescence intensity” value [2] was 3120. The EC50 [3] was 2.03 nM, the “Maximum mean fluorescence intensity” value [4] was 1780 and the “Maximum mean fluorescence intensity” value [5] was 1680.

B5: Tri-35 (trispecific antibody, V domains shown)
VHH: EVQLVESGGGLVQPGGSLRLSCSASGFTLDYYMIGWFRQAPGKEREGLSSISPADGSTYYADSVKGRFTISRDSSKNTVYLQMNSLRAEDTAVYYCAAGNEATISWGFGPWEYDYWGQGTMVTVSS
VH 1: EVQLVQSGAEVKKPGSSVKVSCKASGYTFTSYGISWVRQAPGQGLEWMGEIYPRSGNTYYNEKFKGRVTLTADKSTSTAYMELSSLRSEDTAVYYCARGRAYGRNYPMDYWGQGTTVTVSS
VL 1: EIVLTQSPATLSLSPGERATLSCRASQSIGTSIHWYQQKPGQSPRLLIKYASESISGIPARFSGSGSGTDFTLTISSLEPEDFAVYYCQQSNSWPYTFGGGTKVEIK
VH 2: EVQLVESGGGVVQPGRSLRLSCAASGFTFTDYYMSWVRQAPGKGLEWVAMSRNKAKGHTIEYSSSVKGRFTISRDNSKNTLYLQMNSLRAEDTAVYYCARDTYESYDGYFDVWGQGTTVTVSS
VL 2: DIVMTQSPDSLAVSLGERATINCKSSQSLFNSRSRKNYLAWYQQKPGQTPKLLIYWASIRESGVPDRFSGSGSGTDFTLTISSLQAEDVAVYYCKQSYYLYTFGQGTKLEIK
With B5 the EC50 [1] was 1.78 nM, the “Maximum mean fluorescence intensity” value [2] was 320 and the EC50 [3] was 2.53 nM. For the same binder, the EC50 [4] was 81.4 nM, the “Maximum mean fluorescence intensity” value [4] was 2240 and the “Maximum mean fluorescence intensity” value [5] was 1970.

B6: Tri-41 (trispecific antibody, V domains shown)
VHH: EVQLVESGGGLVQPGGSLRLSCSASGFTLDYYMIGWFRQAPGKEREGLSSISPADGSTYYADSVKGRFTISRDSSKNTVYLQMNSLRAEDTAVYYCAAGNEATISWGFGPWEYDYWGQGTMVTVSS
VH 1: EVQLVQSGAEVKKPGSSVKVSCKASGYTFTSYGISWVRQAPGQGLEWMGEIYPRSGNTYYNEKFKGRVTLTADKSTSTAYMELSSLRSEDTAVYYCARGRAYGRNYPMDYWGQGTTVTVSS
VL 1: EIVLTQSPATLSLSPGERATLSCRASQSIGTSIHWYQQKPGQSPRLLIKYASESISGIPARFSGSGSGTDFTLTISSLEPEDFAVYYCQQSNSWPYTFGGGTKVEIK
VH 2: EVQLVESGGGVVQPGRSLRLSCAASGFTFTDYYMSWVRQAPGKGLEWVAMSRNKAKGHTIEYSSSVKGRFTISRDNSKNTLYLQMNSLRAEDTAVYYCARDTYESYDGYFDVWGQGTTVTVSS
VL 2: DIVMTQSPDSLAVSLGERATINCKSSQSLFNSRSRKNYLAWYQQKPGQTPKLLIYWASIRESGVPDRFSGSGSGTDFTLTISSLQAEDVAVYYCKQSYYLYTFGQGTKLEIK
B6 was tested, and the EC50 [1] was 4.3 nM, the “Maximum mean fluorescence intensity” value [2] was 85 and the EC50 [3] was 1.52 nM. For the same binder, the “Maximum mean fluorescence intensity” value [4] was 235 and the “Maximum mean fluorescence intensity” value [5] was 417.
